Measured values as given in patent US9988428B2, “Pegylated bioactive peptides and uses thereof” (GRIFFON PHARMACEUTICALS INC., priority 2016, dated 2018).
Non-standard residues stand in square brackets, D forms with d. No end group written: not given here. hArg = N=C(N)NCCCC[C@H](N)C(=O)O; Orn = NCCC[C@H](N)C(=O)O

Experiments:
human GHRH receptor = target: T1, human GHRH receptor (Homo sapiens, UniProt Q02643); assay: Hit Hunter (DiscoveRx) cAMP agonist assay in cells expressing GHRH receptor; format: cell-based; details: for In vitro potency / biological activity (in words): effect of Cys-PEG substitution compared with native peptide
T1 sequence (Q02643 23-423): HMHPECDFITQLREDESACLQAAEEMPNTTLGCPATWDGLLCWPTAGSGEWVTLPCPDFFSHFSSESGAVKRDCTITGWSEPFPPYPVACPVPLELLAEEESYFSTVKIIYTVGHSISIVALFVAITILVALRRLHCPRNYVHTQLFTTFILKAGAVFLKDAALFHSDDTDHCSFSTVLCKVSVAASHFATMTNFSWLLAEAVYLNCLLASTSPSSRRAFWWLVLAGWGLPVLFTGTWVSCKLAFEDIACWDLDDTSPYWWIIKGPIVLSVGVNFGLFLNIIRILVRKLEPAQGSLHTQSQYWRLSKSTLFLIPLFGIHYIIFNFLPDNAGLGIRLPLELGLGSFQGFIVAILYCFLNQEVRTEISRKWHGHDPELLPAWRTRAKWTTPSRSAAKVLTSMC
Procedure: For agonist determination, cells were incubated with sample to induce response. Media was aspirated from cells and replaced with 15 μL 2:1 HBSS/10 mM Hepes: cAMP XS+Ab reagent. […] Vehicle concentration was 1%. After appropriate compound incubation, assay signal was generated through incubation with 20 μL cAMP XS+ED/CL lysis cocktail for one hour followed by incubation with 20 μL cAMP XS+EA reagent for three hours at room temperature. Microplates were read following signal generation with a PerkinElmer Envision™ instrument for chemiluminescent signal detection. Compound activity was analyzed using CBIS data analysis suite (ChemInnovation, CA).

Growth Hormone secretion = assay: GH release after subcutaneous injection of GHRH analogs in Sprague-Dawley rats (plasma GH ELISA); format: in vivo; details: female rats; for Growth hormone AUC (0-90 min): single subcutaneous dose 0.04 mg/kg, plasma GH, FIG. 1
Excerpt: Sprague-Dawley rats (female, weighing from 250 to 300 g) were obtained from Charles River Inc. Animals were used according to a protocol of the Animal Care Committee along with the principles of the Guide for the Care and Use of Experimental Animals of the Canadian Council on Animal Care. The animals were maintained on standard laboratory chow under a 12:12 light:dark cycle. They were kept in groups of 4 rats per cage. The animals were anesthetized with isoflurane 2.5%. A mid-section opening was made in the neck to expose the carotid artery. The carotid artery was canulated with polypropylene tubing (PE-50) to allow blood withdrawal. After surgical preparation, rats received a subcutaneous injection of GHRH analog (10-100 μg/kg) dissolved in 20 mM AcONa+5% mannitol at pH 5). Blood samples (400 μL/time point) were collected from 2-4 animals per group. […] Blood was collected into microtainer tubes containing K3EDTA, mixed and immediately centrifuged at 13,000 RPM in a desktop centrifuge for 2 minutes. The plasma was collected and placed into a screw cap Eppendorf™ tube and quickly frozen in liquid nitrogen. The samples were then kept at −80° C. until assayed. Determination of GH levels was performed as described below.
Rat and mouse plasma samples were vortexed carefully and centrifuged at 9,000 RPM for 2 min at 4° C. […] The remainder of the procedure was performed according to the manufacturer's instructions, and the data obtained were analyzed using GraphPad Prism™ software. […] Growth hormone levels were determined in timed-aliquots of blood and are depicted in FIG. 1. […]
The N-terminal part of the GHRH peptide is known to be buried in the extracellular loops and transmembrane domains of the GHRH receptor, and thus almost all of the amino acids in the N-terminal domain participate in high affinity binding of the GHRH peptide to the receptor. […] Briefly, peptides (0.04 mg/kg) were subcutaneously injected in female rats and growth hormone levels were determined in timed aliquots of blood drawn from the animals.

In vitro potency / biological activity (in words) (human GHRH receptor) | Compound | also measured
reduced potency | YaDAIFTC(Peg-2K)SYROVLAQLSAROALQDILSKN-NH2 (Y[dA]DAIFTC(PEG 2 kDa)SYR[Orn]VLAQLSAR[Orn]ALQDILSKN-NH2) [Analog 7, GHRH analog, Cys conjugated to about 2 kDa PEG at position 8] | Growth hormone AUC (0-90 min) (Growth Hormone secretion): 15657 ng/ml/90 min
reduced potency | YaDAIFTASYROVLC(Peg-2K)QLSAROALQDILSKN-NH2 (Y[dA]DAIFTASYR[Orn]VLC(PEG 2 kDa)QLSAR[Orn]ALQDILSKN-NH2) [Analog 5, GHRH analog, Cys conjugated to about 2 kDa PEG at position 15] | –
– | YaDAIFTAC(Peg-2K)YROVLAQLSAROALQDILSKN-NH2 (Y[dA]DAIFTAC(PEG 2 kDa)YR[Orn]VLAQLSAR[Orn]ALQDILSKN-NH2) [Analog 6, GHRH analog, Cys conjugated to about 2 kDa PEG at position 9] | Growth hormone AUC (0-90 min) (Growth Hormone secretion): 29075 ng/ml/90 min
– | YaDAIFTAC(Peg-2K)YROVLAQLSAROALQDILS-(Har)-NH2 (Y[dA]DAIFTAC(PEG 2 kDa)YR[Orn]VLAQLSAR[Orn]ALQDILS[hArg]-NH2) [Analog 10, GHRH analog, about 2 kDa PEG on Cys9, C-terminal Har-NH2] | Fold more potent than the native peptide (human GHRH receptor; Table 3 experiment, versus GHRH1-29): ~14 fold
reduced potency | YaDAIFTASYROVLAQLSAROALQDC(Peg-2K)LSKN-NH2 (Y[dA]DAIFTASYR[Orn]VLAQLSAR[Orn]ALQDC(PEG 2 kDa)LSKN-NH2) [Analog 8, GHRH analog, Cys conjugated to about 2 kDa PEG at position 26] | –
reduced potency | YaDAIFTASYROVLAC(Peg-2K)LSAROALQDILSKN-NH2 (Y[dA]DAIFTASYR[Orn]VLAC(PEG 2 kDa)LSAR[Orn]ALQDILSKN-NH2) [Analog 9, GHRH analog, Cys conjugated to about 2 kDa PEG at position 16] | –
– | CC[C@H](C)[C@H](NC(=O)[C@H](C)NC(=O)[C@H](CC(=O)O)NC(=O)[C@H](C)NC(=O)[C@@H](N)Cc1ccc(O)cc1)C(=O)N[C@@H](Cc1ccccc1)C(=O)N[C@H](C(=O)N[C@@H](CC(N)=O)C(=O)N[C@@H](CO)C(=O)N[C@@H](Cc1ccc(O)cc1)C(=O)N[C@@H](CCCNC(=N)N)C(=O)N[C@@H](CCCCN)C(=O)N[C@H](C(=O)N[C@@H](CC(C)C)C(=O)NCC(=O)N[C@@H](CCC(N)=O)C(=O)N[C@@H](CC(C)C)C(=O)N[C@@H](CO)C(=O)N[C@@H](C)C(=O)N[C@@H](CCCNC(=N)N)C(=O)N[C@@H](CCCCN)C(=O)N[C@@H](CC(C)C)C(=O)N[C@@H](CC(C)C)C(=O)N[C@@H](CCC(N)=O)C(=O)N[C@@H](CC(=O)O)C(=O)N[C@H](C(=O)N[C@@H](CCSC)C(=O)N[C@@H](CO)C(=O)N[C@@H](CCCNC(=N)N)C(N)=O)[C@@H](C)CC)C(C)C)[C@@H](C)O [GHRH1-29, reference compound] | Max. response (%) (human GHRH receptor; Table 3, independent experiment): 112.97%
reduced potency | YaDAIFTASYROVLAQLSC(Peg-2K)ROALQDILSKN-NH2 (Y[dA]DAIFTASYR[Orn]VLAQLSC(PEG 2 kDa)R[Orn]ALQDILSKN-NH2) [Analog 4, GHRH analog, Cys conjugated to about 2 kDa PEG at position 19] | –
– | YaDAIFTASYROVLAQLSAROALQDILC(Peg-2K)KN-NH2 (Y[dA]DAIFTASYR[Orn]VLAQLSAR[Orn]ALQDILC(PEG 2 kDa)KN-NH2) [Analog 1, GHRH analog, Cys conjugated to about 2 kDa PEG at position 28] | Stimulation of GH secretion (in words) (Growth Hormone secretion; subcutaneous 0.04 mg/kg, FIG. 1 / FIG. 2): potently stimulated GH secretion

Compound | In vitro potency / biological activity (in words) (human GHRH receptor) | also measured
YaDAIFTAC(Peg-40K)YROVLAQLSAROALQDILS(Har)-NH2 (Y[dA]DAIFTAC(PEG 40 kDa)YR[Orn]VLAQLSAR[Orn]ALQDILS[hArg]-NH2) [Analog 16, GHRH analog, about 40 kDa PEG on Cys9, C-terminal Har-NH2] | without loss of in vitro biological activity | –
YaDAIFTAC(Peg-5K)YROVLAQLSAROALQDILS(Har)-NH2 (Y[dA]DAIFTACYR[Orn]VLAQLSAR[Orn]ALQDILS[hArg]-NH2; not fully specified (residue 9); printed as YaDAIFTAC(Peg-5K)YROVLAQLSAROALQDILS(Har)-NH2) [Analog 15, GHRH analog, 5K PEG on Cys9, C-terminal Har-NH2] | without loss of in vitro biological activity | –
